Assay results published in US11266675.

Molecular target: Heat shock cognate protein 70 (Hsc70) (UniProt P11142)
Sequence (P11142 2-646): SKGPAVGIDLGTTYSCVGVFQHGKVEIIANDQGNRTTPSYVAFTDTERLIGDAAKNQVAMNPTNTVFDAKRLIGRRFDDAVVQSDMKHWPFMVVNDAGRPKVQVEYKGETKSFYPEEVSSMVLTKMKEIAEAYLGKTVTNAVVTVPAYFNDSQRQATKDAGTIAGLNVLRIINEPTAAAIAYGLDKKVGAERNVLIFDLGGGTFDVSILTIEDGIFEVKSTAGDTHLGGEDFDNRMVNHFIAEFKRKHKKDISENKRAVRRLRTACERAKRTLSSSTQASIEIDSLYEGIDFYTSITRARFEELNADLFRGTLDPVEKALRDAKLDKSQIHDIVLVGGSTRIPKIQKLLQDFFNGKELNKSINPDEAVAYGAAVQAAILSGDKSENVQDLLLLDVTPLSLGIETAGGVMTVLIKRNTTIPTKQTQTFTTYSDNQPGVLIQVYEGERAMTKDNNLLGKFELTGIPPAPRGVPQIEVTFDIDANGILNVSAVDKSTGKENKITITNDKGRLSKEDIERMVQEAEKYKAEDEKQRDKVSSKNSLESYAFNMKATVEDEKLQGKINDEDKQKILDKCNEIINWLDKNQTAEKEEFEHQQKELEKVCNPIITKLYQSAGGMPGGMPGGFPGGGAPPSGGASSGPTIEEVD

recombinant His-tagged 2A^pro (2A protease of EV-A71)
cleavage of eIF4G by recombinant 2A^pro in vitro (immunoblot): the cleaved eIF4G was up-regulated in Hsc70 overexpressed cells, indicating an increase of 2A^pro proteolytic activity upon increased Hsc70 level
